{"source": "patent US20110190477A1", "about": "(G2 INFLAMMATION, published 2011)", "binders": {"B1": {"name": "humanized anti-C5aR antibody hAb-Q (antibody, human IgG4 S228P, kappa)", "light": "DVVMTQSPLSLPVTLGEPASISCRSSQSLVHSNGNTYLHWYLQKPGQSPQLLIYKVSNRFSGVPDRFSGSGSGTDFTLKISRVEAEDVGVYFCSQSTLVPLTFGQGTKLEIKRTVAAPSVFIFPPSDEQLKSGTASVVCLLNNFYPREAKVQWKVDNALQSGNSQESVTEQDSKDSTYSLSSTLTLSKADYEKHKVYACEVTHQGLSSPVTKSFNRGEC", "heavy": "not shown", "notes": "IgG4 with the Ser228Pro mutation; also called antibody Q; anti-C5aR ab"}}, "key": {"[1]": {"biological_target": "T1, peptide 23 (33 mer, full length of the 2nd extracellular loop of hC5aR) (human, N-terminal biotin)", "T1 construct": "also called peptide no; 23", "T1 peptide": "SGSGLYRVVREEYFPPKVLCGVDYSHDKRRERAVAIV", "experiment": "peptide ELISA, biotin peptide on streptavidin plate"}, "human C5a receptor": {"biological_target": "T2, human C5a receptor (human, UniProt P21730 1-350)", "T2 construct": "On human neutrophils, L1.2/hC5aR transfectants or neutrophils of hC5aR knock-in mice; also called hC5aR; C5aR1", "T2 chain": "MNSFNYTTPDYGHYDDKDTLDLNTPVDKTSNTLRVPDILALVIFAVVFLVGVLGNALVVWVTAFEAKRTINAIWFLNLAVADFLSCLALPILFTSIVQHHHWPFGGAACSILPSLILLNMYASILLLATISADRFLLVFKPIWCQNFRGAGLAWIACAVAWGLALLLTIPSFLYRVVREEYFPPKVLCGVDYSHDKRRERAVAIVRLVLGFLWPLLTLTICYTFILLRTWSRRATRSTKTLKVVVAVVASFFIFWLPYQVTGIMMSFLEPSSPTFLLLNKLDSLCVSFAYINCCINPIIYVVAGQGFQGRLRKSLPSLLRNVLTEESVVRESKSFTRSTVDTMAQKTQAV", "experiment": "flow cytometry of bound hAb-Q (anti-hIgG-FITC) on human neutrophils, post-chemotaxis lower chamber", "procedure": "The FACSCalibur flow cytometer was set up with compensation parameters established for channel FL-1. Samples were acquired to exclude dead cells and debris. Neutrophils were identified based on FSC and SSC. The level of bound hAb-Q (anti-hIgG-FITC) or free C5aR (hAb-Q-FITC) was determined by determining the FITC (FL-1) mean fluorescence intensity (MFI) of the neutrophils in a sample.\nFour experiments were carried out. Briefly, purified neutrophils isolated from the venous blood of a healthy volunteer were preincubated for 10 min with hAb-Q at concentrations ranging from 0.001 to 100 μg/ml. A small aliquot of this mix was taken to determine the amount of antibody bound receptor (% receptor occupancy) and the remainder was placed in the upper chamber of a transwell plate. C5a (10 nM) was placed in the lower chamber. After 30 min incubation, the number of cells that had migrated into the lower chamber was determined using FACS. The amount of bound antibody on the neutrophils in both the lower and upper chambers at the end of migration was also determined, using FITC-labelled anti-hIgG and flow cytometry. The level of free receptor (no bound antibody) was determined in one experiment by incubating the neutrophils with FITC-labelled hAb-Q before and after migration."}, "[2]": {"biological_target": "T3, chimeric receptor 8. HHHm (human; mouse, UniProt P30993 264-283, limits assumed)", "T3 construct": "Transiently expressed on mouse L1.2 cells", "T3 sequence": "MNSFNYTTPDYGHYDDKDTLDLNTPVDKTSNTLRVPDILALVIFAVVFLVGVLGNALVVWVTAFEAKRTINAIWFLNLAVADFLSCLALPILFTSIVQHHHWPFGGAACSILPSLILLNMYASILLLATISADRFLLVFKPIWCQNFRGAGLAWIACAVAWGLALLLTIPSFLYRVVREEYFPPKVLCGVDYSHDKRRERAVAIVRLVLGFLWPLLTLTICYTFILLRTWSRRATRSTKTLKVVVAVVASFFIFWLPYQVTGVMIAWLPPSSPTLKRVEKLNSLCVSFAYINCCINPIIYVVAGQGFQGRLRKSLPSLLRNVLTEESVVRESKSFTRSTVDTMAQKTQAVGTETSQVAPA", "experiment": "flow cytometry on transiently transfected L1.2 cells", "procedure": "A series of chimeric receptors comprising segments of mouse and human C5aR were constructed to identify the region of the C5a receptor that the antibodies bound. […] Each recombinant vector (5 μg diluted in DMEM) encoding a different chimeric receptor was transfected into 5×10⁵ mouse L1.2 cells using Lipofectamine 2000 (Invitrogen). Cells were grown in DMEM or RPMI (Invitrogen) plus 10% foetal bovine serum (Hyclone). After 24 hours or 48 hours, cells were harvested by centrifugation at 1,500 rpm for 5 min and resuspended in FACS buffer (phosphate buffered saline plus 2% bovine serum albumin). For staining with hAb-Q, 0.5×10⁵ transfected cells were incubated with 5 or 10 μg/ml antibody in a volume of 50 μl per well at 4° C. for 20 minutes. Cells were pelleted as above and rinsed 3 times with 150 μl FACS buffer before addition of 50 μl FITC-conjugated anti-human IgG diluted 1:200 or 1:300 (Sigma, F1641). This mix was incubated for 20 min at 4° C. before cells were pelleted, washed with FACS buffer 3 times and finally resuspended in 150-200 μl FACS buffer. Samples were analysed on a FACS Calibur (BD Biosciences).\nTo confirm that the humanised antibody hAb-Q, which was derived from mouse mAb 7F3 by CDR grafting, and therefore should contain the same antigen-binding site, had the same staining pattern as 7F3, transiently transfected cells expressing the different chimeric human/mouse C5aR were stained with hAb-Q and analysed by flow cytometry. The pattern of staining by hAb-Q was identical to that observed with 7F3. There was no staining by the secondary antibody (anti-hIgG-FITC) alone."}}, "data": [{"binder": "B1", "values": [{"measurement": "binding result", "setting": "[1]", "value": "binds"}, {"measurement": "EC50", "setting": "human C5a receptor", "value": 1.1, "unit": "µg/mL"}, {"measurement": "binding result", "setting": "[2]", "value": "binds"}]}]}
